Test results as given in patent US20210380703A1.
Positions count from the first letter of the chain named.

B1: 374_F11 (antibody, V domains shown)
VH: EVQLLESGGGLVQPGGSLRLSCAASGFTFDSYSMNWVRQAPGKGLEWVSNINYNGGYTGYADSVKGRFTISRDNSKNTLYLQMNSLRAEDTAVYYCARSANWHDTALDYWGQGTLVTVSS
VL: DIQMTQSPSSLSASVGDRVTITCRASQSILSYLNWYQQKPGKAPKLLIYAVTSLASGVPSRFSGSGSGTDFTLTISSLQPEDFATYYCQQSYESPLTFGGGTKVEIK
B2: 376_B04 (antibody, V domains shown)
VH: B1 VH with S33G, N35H, S49A, N50S
VL: B1 VL with L30V, L33V, L47V, V51A, L54R, E93D, S94T
B3: 365_G12 (antibody, V domains shown)
VH: B1 VH with D30S, S33G, S49A, N50G, G55S, G59S, N101T
VL: B1 VL with L33V, L47V, V51A, L54R, E93S, S94N
B4: 376_A12 (antibody, V domains shown)
VH: B1 VH with D30S, S49A, G55S, T58K
VL: B1 VL with L33V, L47V, V51A, L54R, E93D, S94T
B5: 375_E07 (antibody, V domains shown)
VH: B1 VH with D30S, S31D, S49A, N50G, G55S, T58K
VL: B1 VL with L30V, S31T, A50V, S53N, L54R, A55E, S94T
B6: 375_H12 (antibody, V domains shown)
VH: B1 VH with D30S, S33G, S49A, N50G, T58K
VL: B1 VL with S31T, A50Y, S53N, L54R, A55Q, E93S, S94I
B7: 376_G09 (antibody, V domains shown)
VH: B1 VH with N50G, G55S, T58K
VL: B1 VL with L30S, S31Y, L54R, E93D, S94N
B8: 375_A05 (antibody, V domains shown)
VH: B1 VH with D30S, S33G, S49A, T58K
VL: B1 VL with V51A, L54R, E93D, S94L
B9: 370_G12 (antibody, V domains shown)
VH: B1 VH with D30S, S49A, N50G, T58K, N101T
VL: B1 VL with L30I, S31T, V51A, Y92D
B10: 367_C03 (antibody, V domains shown)
VH: B1 VH with D30S, S49A, N101T
VL: B1 VL with L33V, L47V, V51T, L54R, S94N
B11: 376_B09 (antibody, V domains shown)
VH: B1 VH with S49A, G55S, T58K
VL: B1 VL with S31T, L33V, L47V, V51A, L54R, E93D, S94L
B12: 375_D07 (antibody, V domains shown)
VH: B1 VH with D30S, S33G, S49A, G55S
VL: B1 VL with L30I, S31T, V51A, L54R, E93D, S94T
B13: 376_B07 (antibody, V domains shown)
VH: B1 VH with N50G, G55S, G59S, N101T
VL: B1 VL with L47V, A50Y, T52S, S53N, L54R, E93D, S94N
B14: 369_C10 (antibody, V domains shown)
VH: B1 VH with D30S, S49A, G59S, N101T
VL: B1 VL with L30V, S31T, V51A, A55H, Y92D, E93S, S94L
B15: 376_H10 (antibody, V domains shown)
VH: B1 VH with N50G, G55S, T58K, G59S
VL: B1 VL with S31T, L47V, V51A, L54R, A55H, E93D
B16: 374_H09 (antibody, V domains shown)
VH: B1 VH with D30S, S49A, G55S, T58K, G59S
VL: B1 VL with L47V, E93D, S94L
B17: 375_D12 (antibody, V domains shown)
VH: B1 VH with S33G, N50S, G55S, G59S
VL: B1 VL with S31T, L33V, L47V, V51A, L54R, S94T
B18: 374_H07 (antibody, V domains shown)
VH: B1 VH with S33G, S49A
VL: B1 VL with S31T, V51A, L54R, S94T
B19: 367_H07 (antibody, V domains shown)
VH: B1 VH with D30S, S49A, N101T
VL: B1 VL with L33V, L47V, V51T, L54R, S94N
B20: 376_C06 (antibody, V domains shown)
VH: B1 VH with D30S, S33G, S49A, N50G, G59S, N101T
VL: B1 VL with L47V, V51A, L54R, E93D
B21: 376_G08 (antibody, V domains shown)
VH: B1 VH with S33G, S49A, G59S
VL: B1 VL with L33V, L47V, V51A, L54R, E93D, S94T
B22: 365_E02 (antibody, V domains shown)
VH: B1 VH with D30S, S49A, G59S, R98K, N101T, A106H
VL: B1 VL with L30I, V51A, L54R, S94N
B23: 376_E03 (antibody, V domains shown)
VH: B1 VH with D30S, S33G, S49A
VL: B1 VL with L33V, L47V, V51A, E93D, S94L
B24: 375_E01 (antibody, V domains shown)
VH: B1 VH with D30S, N50G, G55S, T58K, G59S
VL: B1 VL with S31T, L47V, V51A, L54R, Y92D, E93D
B25: 374_G04 (antibody, V domains shown)
VH: B1 VH with D30S, S49A, N50G
VL: B1 VL with S31T, L47V, V51A, E93D, S94N
B26: 368_C01 (antibody, V domains shown)
VH: B1 VH with S33G, S49A, N50G, N101T
VL: B1 VL with L30I, S31T, V51A, L54R, E93D
B27: 375_D05 (antibody, V domains shown)
VH: B1 VH with D30S, S49A, N50S, G55S, G59S, A106H
VL: B1 VL with L30V, V51A, A55H, E93D, S94T
B28: 376_A04 (antibody, V domains shown)
VH: B1 VH with G59S
VL: B1 VL with L30V, S31T, L47V, V51A, L54R, E93D
B29: 375_C06 (antibody, V domains shown)
VH: B1 VH with S31D, S33G, N35H, S49A, N50S, G55S, G59S
VL: B1 VL with S31T, L33V, L47V, V51T, L54R, E93D
B30: 375_D04 (antibody, V domains shown)
VH: B1 VH with S31D, Y32S, N35H, R98K
VL: B1 VL with L33V, L47V, V51A, L54R, S94L
B31: 376_B11 (antibody, V domains shown)
VH: B1 VH with D30S, N50G, G59S
VL: B1 VL with L33V, L47V, V51A, L54R, E93D, S94L
B32: 376_C01 (antibody, V domains shown)
VH: B1 VH with S49A, N50G, G59S
VL: B1 VL with S31T, V51A, E93D, S94N
B33: 374_H04 (antibody, V domains shown)
VH: B1 VH with N50G, G55S, G59S
VL: B1 VL with S31T, V51A, L54R, E93D, S94N
B34: 376_A10 (antibody, V domains shown)
VH: B1 VH with D30S, S31D, S33G, G55S, T58K
VL: B1 VL with V51A, L54R
B35: 374_G06 (antibody, V domains shown)
VH: B1 VH with D30S, S33G, N35H, S49A, N50S, G59S
VL: B1 VL with L54R, E93D, S94L
B36: 374_H03 (antibody, V domains shown)
VH: B1 VH with D30S, S33G, N50G, G55S, T58K, G59S
VL: B1 VL with L33V, L47V, V51A, L54R, E93D
B37: 376_D05 (antibody, V domains shown)
VH: B1 VH with D30S, T58K
VL: B1 VL with L30V, L33V, V51A, E93D, S94T
B38: 376_C02 (antibody, V domains shown)
VH: B1 VH with S33G, N50G, G55S, G59S
VL: B1 VL with L30V, L47V, L54R, E93D
B39: 376_B05 (antibody, V domains shown)
VH: B1 VH with D30S, S49A
VL: B1 VL with L30I, L33V, V51A, L54R, S94L
B40: 368_D10 (antibody, V domains shown)
VH: B1 VH with S33G, S49A, N50G, G55S, G59S, N101T
VL: B1 VL with L47V, V51A, L54R, E93D
B41: 376_H09 (antibody, V domains shown)
VH: B1 VH with D30S, S31D, S49A
VL: B1 VL with L30I, S31T, L47V, A50Y, T52S, S53N, A55P, E93D
B42: 374_G07 (antibody, V domains shown)
VH: B1 VH with D30S, N50G, G55S, T58K, G59S
VL: B1 VL with L30I, V51A, L54R, E93D
B43: 374_C08 (antibody, V domains shown)
VH: B1 VH with S33G, N50G, G55S, T58K, G59S, N101T
VL: B1 VL with L33V, L54R, E93D
B44: 376_C12 (antibody, V domains shown)
VH: B1 VH with D30S, S49A, N50G
VL: B1 VL with S31T, L33V, V51A, L54R, E93D
B45: 376_D11 (antibody, V domains shown)
VH: B1 VH with D30S, S33G, S49A
VL: B1 VL with L47V, V51A, L54R, E93N, S94N
B46: 376_E08 (antibody, V domains shown)
VH: B1 VH with D30S, S31D, S33G, S49A, N50G, G59S
VL: B1 VL with L30V, L33V, L47V, V51A, L54R, E93D
B47: 376_A06 (antibody, V domains shown)
VH: B1 VH with N50G, G55S, G59S, N101T
VL: B1 VL with L47V, A50Y, T52S, S53N, L54R, E93D, S94N
B48: 374_H06 (antibody, V domains shown)
VH: B1 VH with D30S, S33G
VL: B1 VL with L30V, L33V, L47V, V51A, L54R, E93N, S94L

The binders below were run against human Fc (human) (assay: ELISA; negative control).

Row | optical density [OD] | Binder
1 | 0.191 | B1
2 | 0.293 | B2
3 | 0.556 | B3
4 | 0.22 | B4
5 | 0.158 | B5
6 | 0.188 | B6
7 | 0.23 | B7
8 | 0.202 | B8
9 | 0.418 | B9
10 | 0.275 | B10
11 | 0.227 | B11
12 | 0.176 | B12
13 | 0.234 | B13
14 | 0.32 | B14
15 | 0.318 | B15
16 | 0.158 | B16
17 | 0.193 | B17
18 | 0.163 | B18
19 | 0.297 | B19
20 | 0.29 | B20
21 | 0.22 | B21
22 | 0.357 | B22
23 | 0.234 | B23
24 | 0.164 | B24

Row | optical density [OD] | Binder
25 | 0.161 | B25
26 | 0.41 | B26
27 | 0.202 | B27
28 | 0.245 | B28
29 | 0.2 | B29
30 | 0.182 | B30
31 | 0.261 | B31
32 | 0.324 | B32
33 | 0.167 | B33
34 | 0.279 | B34
35 | 0.25 | B35
36 | 0.162 | B36
37 | 0.215 | B37
38 | 0.222 | B38
39 | 0.242 | B39
40 | 0.245 | B40
41 | 0.281 | B41
42 | 0.214 | B42
43 | 0.178 | B43
44 | 0.438 | B44
45 | 0.267 | B45
46 | 0.332 | B46
47 | 0.262 | B47
48 | 0.166 | B48
